In US20040147432A1 (MERCK, published 2004):
Like-named read-outs stand apart in the source and are kept apart here. Bridges are numbered along the chain shown (N, C = ends). Where no end group is shown, it is not given here. [ ]: non-standard residue; d: D form. dCha = N[C@H](CC1CCCCC1)C(=O)O; Aib = CC(C)(N)C(=O)O

Key:
[1] = target: T1, human melanin concentrating hormone type 2 receptor (MCH-2R) (human, UniProt Q969V1 1-340); assay: SPA competition with [125I]-human MCH (Phe13, Tyr19) on receptor membranes
T1 construct: also called MCH-R2
Description: (§1) For the SPA-based assay, WGA-PVT beads (NEN Life Sciences Products) were resuspended in Dulbecco's PBS with calcium and magnesium (500 mg beads in 4 ml PBS). […] The suspension was mixed gently for 20 minutes, 12.3 ml of assay buffer and protease inhibitors were added (final concentration given): 2 μg/ml leupeptin, 10 μM phosphoramidon, 40 μg/ml bacitracin, 5 μg/ml aprotinin, 0.1 mM Pefabloc.
(§2) Coated beads were kept on ice until use. […] Binding reactions were allowed to proceed at room temperature for 3 hours. Quantitation was performed by scintillation counting (TopCount device).

[2] = target: T1, human melanin concentrating hormone …; assay: cell-based or functional assay
human MCH-1R [3] = target: T2, human MCH-1R (human, UniProt Q99705 1-353); assay: SPA competition with [125I]-human MCH (Phe13, Tyr19) on receptor membranes
T2 construct: also called MCH-R1
Description: as §1, §2

human MCH-1R [4] = target: T2, human MCH-1R; assay: cell-based or functional assay
human MCH-1R [5] = target: T2, human MCH-1R; assay: SPA competition with [125I]-human MCH (Phe13, Tyr19) on receptor membranes; remark: listed apart in the source
Description: as §1, §2

[6] = target: T1, human melanin concentrating hormone …; assay: as above; remark: listed apart in the source
Description: as §1, §2

human MCH-1R [7] = target: T2, human MCH-1R; assay: cell-based or functional assay; remark: listed apart in the source
[8] = target: T1, human melanin concentrating hormone …; assay: cell-based or functional assay; remark: listed apart in the source

T2 sequence (Q99705 whole entry, form in doubt): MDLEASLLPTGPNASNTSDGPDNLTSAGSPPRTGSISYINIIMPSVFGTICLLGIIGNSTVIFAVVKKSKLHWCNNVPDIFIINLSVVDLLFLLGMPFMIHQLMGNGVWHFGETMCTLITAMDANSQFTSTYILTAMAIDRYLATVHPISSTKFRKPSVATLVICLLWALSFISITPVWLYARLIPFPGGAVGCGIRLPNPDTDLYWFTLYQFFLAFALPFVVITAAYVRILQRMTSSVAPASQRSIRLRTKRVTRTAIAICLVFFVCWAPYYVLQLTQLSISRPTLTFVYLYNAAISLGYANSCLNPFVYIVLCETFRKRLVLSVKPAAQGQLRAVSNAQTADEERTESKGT
T1 sequence (Q969V1 whole entry, form in doubt): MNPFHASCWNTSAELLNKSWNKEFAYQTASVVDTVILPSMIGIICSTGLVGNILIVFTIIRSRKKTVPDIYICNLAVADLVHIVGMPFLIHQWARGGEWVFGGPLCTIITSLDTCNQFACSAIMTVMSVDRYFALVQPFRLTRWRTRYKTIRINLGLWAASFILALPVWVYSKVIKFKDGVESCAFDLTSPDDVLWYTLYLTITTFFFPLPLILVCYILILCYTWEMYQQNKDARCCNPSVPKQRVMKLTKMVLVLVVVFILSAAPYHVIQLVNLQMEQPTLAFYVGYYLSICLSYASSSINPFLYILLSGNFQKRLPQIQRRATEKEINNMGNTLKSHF

Binder | IC50 [1] [nM] | Activation % at 10 µM (aequorin functional assay) [2] [%] | EC50 (aequorin functional assay) [2] [nM] | IC50 (human MCH-1R [3]) [nM] | Activation % at 10 µM (aequorin functional assay) (human MCH-1R [4]) [%] | EC50 (aequorin functional assay) (human MCH-1R [4]) [nM] | IC50 (human MCH-1R [5]) [nM] | IC50 [6] [nM] | Activation % at 10 µM (aequorin functional assay) (human MCH-1R [7]) [%] | EC50 (aequorin functional assay) (human MCH-1R [7]) [nM] | Activation % at 10 µM (aequorin functional assay) [8] [%] | EC50 (aequorin functional assay) [8] [nM] | % @ concentration (human MCH-1R [5]) [% @ 1 µM]
AFDMLRCMLGRVYRPCWQV (disulfide 7-16, positions 1-19 as in hMCH; also called Ala^1) [SEQ. ID. NO. 41] | 2.1 | 96 | 114 |  |  |  |  |  |  |  |  |  | 
DADMLRCMLGRVYRPCWQV (disulfide 7-16, also called Ala^2) [SEQ. ID. NO. 42] | 1.1 | 102 | 28.6 | 0.2 | 97 | 9.9 |  |  |  |  |  |  | 
DFAMLRCMLGRVYRPCWQV (disulfide 7-16, also called Ala^3) [SEQ. ID. NO. 43] | 1.2 | 95 | 57.2 | 0.5 | 97 | 30.2 |  |  |  |  |  |  | 
DFDALRCMLGRVYRPCWQV (disulfide 7-16, also called Ala^4) [SEQ. ID. NO. 44] | 2.4 | 100 | 38.9 | 0.5 | 97 | 12.7 |  |  |  |  |  |  | 
DFDMARCMLGRVYRPCWQV (disulfide 7-16, also called Ala^5) [SEQ. ID. NO. 45] | 2 | 94 | 17.9 | 0.3 | 96 | 20.3 |  |  |  |  |  |  | 
DFDMLACMLGRVYRPCWQV (disulfide 7-16, also called Ala^6) [SEQ. ID. NO. 46] | 200 | 76 | 853 | 4.5 | 81 | 161 |  |  |  |  |  |  | 
DFDMLRCALGRVYRPCWQV (disulfide 7-16) [SEQ. ID. NO. 47] | 40 | 94 | 125 | 40.1 | 56 | 731 |  |  |  |  |  |  | 
DFDMLRCMAGRVYRPCWQV (disulfide 7-16, also called Ala^9) [SEQ. ID. NO. 48] | 9.5 | 92 | 95.7 | 0.9 | 96 | 22 |  |  |  |  |  |  | 
DFDMLRCMLGAVYRPCWQV (disulfide 7-16) [SEQ. ID. NO. 49] | 290 |  | > 1000 | 169 | 24 | 5240 |  |  |  |  |  |  | 
DFDMLRCMLGRAYRPCWQV (disulfide 7-16, also called Ala^12) [SEQ. ID. NO. 50] | 25 | 98 | 83.6 | 0.9 | 95 | 38.3 |  |  |  |  |  |  | 
DFDMLRCMLGRVARPCWQV (disulfide 7-16, also called Ala^13) [SEQ. ID. NO. 51] | 670 |  | > 1000 | 253 | 20 | 2300 |  |  |  |  |  |  | 
DFDMLRCMLGRVYAPCWQV (disulfide 7-16, also called Ala^14) [SEQ. ID. NO. 52] | 62 | 81 | 186 | 1.4 | 97 | 28.3 |  |  |  |  |  |  | 
DFDMLRCMLGRVYRACWQV (disulfide 7-16, also called Ala^15) [SEQ. ID. NO. 53] | 19 | 96 | 84.2 | 1.9 | 99 | 34.7 |  |  |  |  |  |  | 
DFDMLRCMLGRVYRPCAQV (disulfide 7-16, also called Ala^17) [SEQ. ID. NO. 54] | 5.1 | 95 | 54.2 | 0.1 | 100 | 6.8 |  |  |  |  |  |  | 
DFDMLRCMLGRVYRPCWAV (disulfide 7-16, also called Ala^18) [SEQ. ID. NO. 55] | 9.5 | 97 | 80.8 | 0.7 | 99 | 36.1 |  |  |  |  |  |  | 
Ac-RCML[Aib]RVYRPC-NH2 (disulfide 2-11; SMILES CSCC[C@@H]1NC(=O)[C@@H](NC(=O)[C@H](CCCNC(=N)N)NC(C)=O)CSSC[C@@H](C(N)=O)NC(=O)[C@@H]2CCCN2C(=O)[C@H](CCCNC(=N)N)NC(=O)[C@H](Cc2ccc(O)cc2)NC(=O)[C@H](C(C)C)NC(=O)[C@H](CCCNC(=N)N)NC(=O)C(C)(C)NC(=O)[C@H](CC(C)C)NC1=O, also called Aib^10) [SEQ. ID. NO. 11] |  |  |  |  |  |  | 90 | 2.2 | 22 | 1900 | 104 | 24 | 
RCMLXRVYRPC (Phg^10 (phenylglycine), also called Phg^10) [SEQ. ID. NO. 12] |  |  |  |  |  |  | 2.9 | 312 | 0.1 | > 10000 | 80 | 140 | 
Ac-RCML[dA]RVYRPC-NH2 (disulfide 2-11; SMILES CSCC[C@@H]1NC(=O)[C@@H](NC(=O)[C@H](CCCNC(=N)N)NC(C)=O)CSSC[C@@H](C(N)=O)NC(=O)[C@@H]2CCCN2C(=O)[C@H](CCCNC(=N)N)NC(=O)[C@H](Cc2ccc(O)cc2)NC(=O)[C@H](C(C)C)NC(=O)[C@H](CCCNC(=N)N)NC(=O)[C@@H](C)NC(=O)[C@H](CC(C)C)NC1=O, also called D-Ala^10) [SEQ. ID. NO. 13] |  |  |  |  |  |  | 490 | 3.2 | 40 | 1360 | 103 | 16 | 
Ac-RCML[dCha]RVYRPC-NH2 (disulfide 2-11 (inferred), also called D-Cha^10) [SEQ. ID. NO. 16] |  |  |  |  |  |  | 11 | 74 | 0.1 | > 10000 | 74 | 207 | 
Ac-RCML[dF]RVYRPC-NH2 (disulfide 2-11 (inferred), also called D-Phe^10) [SEQ. ID. NO. 17] |  |  |  |  |  |  | 18 | 47 | 5 | > 10000 | 102 | 25 | 
Ac-RCML[dN]RVYRPC-NH2 (disulfide 2-11 (inferred), also called D-Asn^10) [SEQ. ID. NO. 18] |  |  |  |  |  |  | 97 | 2.3 | 39 | 3000 | 106 | 24 | 
Ac-RCML[dS]RVYRPC-NH2 (disulfide 2-11 (inferred), also called D-Ser^10) [SEQ. ID. NO. 19] |  |  |  |  |  |  | 31 | 1.6 | 47 | 2560 | 113 | 7 | 
RCMLGXVYRPC (Harg^11 (homoarginine), also called Harg^11) [SEQ. ID. NO. 24] |  |  |  |  |  |  | 6.9 | 0.4 | 72 | 1200 | 43 | > 10000 | 
RCMLGXVYRPC (Arg(NO2)^11 (nitroarginine), also called Arg(NO2)^11) [SEQ. ID. NO. 25] |  |  |  |  |  |  |  | 4.9 |  | > 1000 | 39 | > 10000 | 80
